Measured values taken from FireProtDB (doi:10.1021/bi00444a012).

B1: Subtilisin BPN', P00782 (parent)
chain: MRGKKVWISLLFALALIFTMAFGSTSSAQAAGKSNGEKKYIVGFKQTMSTMSAAKKKDVISEKGGKVQKQFKYVDAASATLNEKAVKELKKDPSVAYVEEDHVAHAYAQSVPYGVSQIKAPALHSQGYTGSNVKVAVIDSGIDSSHPDLKVAGGASMVPSETNPFQDNNSHGTHVAGTVAALNNSIGVLGVAPSASLYAVKVLGADGSGQYSWIINGIEWAIANNMDVINMSLGGPSGSAALKAAVDKAVASGVVVVAAAGNEGTSGSSSTVGYPGKYPSVIAVGAVDSSNQRASFSSVGPELDVMAPGVSIQSTLPGNKYGAYNGTSMASPHVAGAAALILSKHPNWTNTQVRSSLENTTTKLGDSFYYGKGLINVQAAAQ

Variants of: B1
Conditions: Bacillus amyloliquefaciens, pH 8, Thermal, DSC, Tris-HCl 5.0 mM, KCl 50 mM, reversible: yes, structure 1SUP, whole UniProt chain shown; for ddG of mutation (higher = less stable): 58.8 °C

Variant | ddG of mutation (higher = less stable) [kcal/mol] | Tm [°C] | change of melting temperature, mutant - wild type (higher = more stable) [°C]
N183D | -0.45 | 60.2 | 1.7
G276A | -0.3 | 59.6 | 1.1
N325S | -1.07 | 62.5 | 4
Y324K | -0.72 |  | 
Q313C | -1.25 | 63.2 | 4.7
M157F | -0.48 | 60.3 | 1.8
